Measurements: US20260242474A1 (PERSONGEN BIOTHERAPEUTICS SUZHOU, published 2026)

How the values were obtained:
[1] = biological target: T1, PD1-Fc recombinant protein (human, UniProt Q15116 25-167); experiment: SPR, PD1-Fc immobilized on CM5 chip, antibody as mobile phase
T1 construct: range 25-167; also called PD1-Fc antigen; PD1-Fc protein; not shown: human IgG1 Fc tag at the C-terminus

[2] = biological target: T1, PD1-Fc recombinant protein; experiment: phage ELISA, wells coated with PD1-Fc (Fc and blocked wells as controls)

T1 sequence (Q15116 25-167 limits assumed): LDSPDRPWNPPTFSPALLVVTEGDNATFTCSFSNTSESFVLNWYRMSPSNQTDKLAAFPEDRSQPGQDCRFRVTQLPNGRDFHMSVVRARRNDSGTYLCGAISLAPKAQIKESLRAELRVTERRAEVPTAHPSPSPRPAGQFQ

Row | Binder | Kd [1] | koff [1] | kon [1] | binding result [2]
1 | 2-F3-(G4S)3-2-B1 bivalent PD1 antibody (with human IgG1 Fc) (Fc fusion, Two VHH joined by (G4S)3, subcloned in tandem with human IgG1 Fc; purified on Protein A; not shown: human IgG1 Fc, in tandem C-terminal (vector pcDNA3.4-hIgG1-Fc2)) QVKLEESGGGLVQPGGSLTVSCVASGFSLDAYTIGWFRQAPGKEREGIICISRGGRITNYAHSVKDRFTISRDGAKNMVYLHMNSLKPEDTGAYYCAAVQRDPFICSGYTQSYDLWGQGTQVTVSSGGGGSGGGGSGGGGSQVQLVESGGGLVQPGGSLTVSCAASGFSLDAYTIGWFRQAPGKEREGIICISRGGRITNYAHSVKDRFTISRDGAKNTVYLHMNSLKPEDTGAYYCAAVQRDPFICSGYTQSYDHWGQGTQVTVSS | 0.282 nM | 0.000118 s⁻¹ | 418000 M⁻¹ s⁻¹ | –
2 | 2-C10 VHH displayed on phage (clone from cross-panning) (VHH, Tested as a phage monoclone (pComF display vector, M13) in phage ELISA; the phage fusion partner is not described) VHH: QVQLVESGGGLVQPGGSLRLSCAASGFSLDAYTIGWFRQAPGQEREGISCISRSGRITNYARSAKDRFTISRDNAKNTVYLEMKNLRPEDTGAYYCAAVEMDPFLCSGYTQSYDQWGQGTQVTVSS | – | – | – | binds
3 | 2-C10-(G4S)3-2-B1 bivalent PD1 antibody (with human IgG1 Fc) (Fc fusion, Two VHH joined by (G4S)3, subcloned in tandem with human IgG1 Fc; purified on Protein A; not shown: human IgG1 Fc, in tandem C-terminal (vector pcDNA3.4-hIgG1-Fc2)) QVQLVESGGGLVQPGGSLRLSCAASGFSLDAYTIGWFRQAPGQEREGISCISRSGRITNYARSAKDRFTISRDNAKNTVYLEMKNLRPEDTGAYYCAAVEMDPFLCSGYTQSYDQWGQGTQVTVSSGGGGSGGGGSGGGGSQVQLVESGGGLVQPGGSLTVSCAASGFSLDAYTIGWFRQAPGKEREGIICISRGGRITNYAHSVKDRFTISRDGAKNTVYLHMNSLKPEDTGAYYCAAVQRDPFICSGYTQSYDHWGQGTQVTVSS | 0.0211 nM | 3.29e-05 s⁻¹ | 1.56e+06 M⁻¹ s⁻¹ | –
4 | 2-C10-(G4S)3-2-F3 bivalent PD1 antibody (with human IgG1 Fc) (Fc fusion, Two VHH joined by (G4S)3, subcloned in tandem with human IgG1 Fc; purified on Protein A; not shown: human IgG1 Fc, in tandem C-terminal (vector pcDNA3.4-hIgG1-Fc2)) QVQLVESGGGLVQPGGSLRLSCAASGFSLDAYTIGWFRQAPGQEREGISCISRSGRITNYARSAKDRFTISRDNAKNTVYLEMKNLRPEDTGAYYCAAVEMDPFLCSGYTQSYDQWGQGTQVTVSSGGGGSGGGGSGGGGSQVKLEESGGGLVQPGGSLTVSCVASGFSLDAYTIGWFRQAPGKEREGIICISRGGRITNYAHSVKDRFTISRDGAKNMVYLHMNSLKPEDTGAYYCAAVQRDPFICSGYTQSYDLWGQGTQVTVSS | 0.28 nM | 8.92e-05 s⁻¹ | 318000 M⁻¹ s⁻¹ | –
